Here are results for three substances from US20190241619A1.

The test deals with HLA-B15 (human). The experiment in a line: experimental peptide-HLA binding affinity; method not described.

With HPV16 E7/15-23 peptide …, the Binding affinity was 4.68 µM.
Turning to HPV16 E7/15-24 peptide …, the Binding affinity was determined as 38.5 µM.
In turn, HPV16 E7/15-25 peptide … returned a Binding affinity of 7.3 µM.
